Reference: paper PMC2705212 (Journal of molecular biology, 2008)
Each block holds one molecule with its values, some of them ahead of it.

B1: BMP-7 growth factor dimer (ligand, human, UniProt P18075 293-431, looked up)
chain: STGSKQRSQNRSKTPKNQEALRMANVAENSSSDQRQACKKHELYVSFRDLGWQDWIIAPEGYAAYYCEGECAFPLNSYMNATNHAIVQTLVHFINPETVPKPCCAPTQLNAISVLYFDDSSNVILKKYRNMVVRACGCH
B2: BMPRII-Fc chimera (soluble extracellular domain of BMP receptor II) (Fc fusion, human, UniProt Q13873 27-150, looked up)
chain: SQNQERLCAFKDPYQQDLGIGESRISHENGTILCSKGSTCYGLWEKSKGDINLVKQGCWSHIGDPQECHYEECVVTTTPPSIQNGTYRFCCCSTDLCNVNFTENFPPPDTTPLSPPHSFNRDET

How the values were obtained:
[1] = biological target: BMP-7 prodomain-growth factor complex (UniProt P18075); assay: SPR
[2] = biological target: BMP-7 prodomain; assay: SPR
[3] = biological target: ActRIIA-Fc chimera (soluble extracellular domain of activin receptor IIA) (human) (UniProt P27037); assay: SPR
[4] = biological target: BMPRII-Fc chimera (soluble extracellular domain of BMP receptor II) (human) (UniProt Q13873); assay: SPR
[5] = biological target: B2; assay: AUC
[6] = biological target: B1; assay: SPR

Chain of ActRIIA-Fc chimera (soluble extracellular domain of activin receptor IIA) (human) (P27037 20-135, change not shown): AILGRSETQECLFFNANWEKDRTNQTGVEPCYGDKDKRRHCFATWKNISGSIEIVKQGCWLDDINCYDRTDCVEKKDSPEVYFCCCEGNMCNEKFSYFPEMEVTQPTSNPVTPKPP

reduction of the response against immobilized BMP-7 gfd [1]: 90%
Molecule: ActRIIA-Fc chimera (soluble extracellular domain of activin receptor IIA) (from UniProt P27037 20-135) (Fc fusion)

koff [2]: 0.00209 s⁻¹
kon [2]: 98700 M⁻¹ s⁻¹
Molecule: BMP-7 growth factor dimer (from UniProt P18075 293-431) (ligand)

koff [3]: 0.00352 s⁻¹
kon [3]: 265000 M⁻¹ s⁻¹
koff [4]: 0.00213 s⁻¹
kon [4]: 216000 M⁻¹ s⁻¹
Molecule: BMP-7 prodomain-growth factor complex (from UniProt P18075 293-431)

Molecule: B1
stoichiometry N [5]: 2 gfd per BMPRII-Fc dimer

Molecule: B2
koff [6]: 0.00298 s⁻¹
kon [6]: 625000 M⁻¹ s⁻¹
reduction of the response against immobilized BMP-7 gfd [1]: 90%
